# Test results taken from patent US7968091 (GENERAL HOSPITAL, dated 2011).
# B1: ALK5.Fc (a TGF-β type I receptor, R & D Systems) (Fc fusion, UniProt P36897 34-125, looked up)
# chain: LQCFCHLCTKDNFTCVTDGLCFVSVTETTDKVIHNSMCIAEIDLIPRDRPFVCAPSSKTGSVTTTYCCNQDHCNKIELPTTVKSSPGLGPVE
# notes: Bought fusion protein, negative control; not shown: Fc part of the bought fusion protein; not described
# Molecular target: T1, human BMP-2 ligand (carrier-free, R & D Systems), used 125I-labeled and as cold competitor (human, UniProt P12643 283-396, iodinated with [125I] by the modified chloramine-T method (labeled form))
# T1 construct: Bought recombinant ligand
# Experiment: DSS chemical crosslinking with 125I-BMP-2, Protein A pull-down, SDS-PAGE, autoradiography
# Experimental: Ligand iodination and crosslinking. […] This mixture was incubated in the absence or presence of […] disuccinimidyl suberate (DSS, Sigma, St. Louis, Mo.) followed by incubated with Protein A Sepharose beads (Amersham) as previously described (J. L. Babitt et al., J. Biol. Chem., 2005, 280: 29820-29827). Beads were washed with phosphate buffered saline (PBS) and protein eluted by non-reducing Laemmli sample buffer (Bio-Rad). Eluted protein was separated by SDS-PAGE and analyzed by autoradiography.
# T1 sequence (P12643 283-396 limits assumed): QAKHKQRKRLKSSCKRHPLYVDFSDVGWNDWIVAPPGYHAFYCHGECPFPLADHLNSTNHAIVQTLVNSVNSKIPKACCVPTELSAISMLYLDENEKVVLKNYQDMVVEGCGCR
binder,measurement,value
B1,binding result,no binding (tested: 60 ng ALK5.Fc)
